The target of this data set is hFEN1QF (Homo sapiens, UniProt P39748 1-336, E120C;C235A;S293C;C311A). Nature of the data set: single-molecule FRET; 8 mM Ca2+; 20 nM DNA, ~50 pM protein; NMR: 10 mM HEPES-KOH pH 7.5, 6 mM KCl (76 mM KCl in titration), 0.1 mM EDTA, 4 mM NaN3, 100 mM bME, 298 K; smFRET: 55 mM HEPES-KOH pH 7.5, 110 mM KCl, 8 mM CaCl2, 0.1 mg/ml BSA, 1 mM DTT, room temperature. Particulars: protein: recombinant; tags: C-terminal HRV 3C-cleavable His6, cleaved; six residual C-terminal residues of the 3C site; bimolecular double flap: 5-nt 5' flap, 1-nt 3' flap; T1 has a GAA hairpin; F1:T1 annealed 1:1.1.
hFEN1QF, sequence (P39748 1-336 E120C/C235A/S293C/C311A): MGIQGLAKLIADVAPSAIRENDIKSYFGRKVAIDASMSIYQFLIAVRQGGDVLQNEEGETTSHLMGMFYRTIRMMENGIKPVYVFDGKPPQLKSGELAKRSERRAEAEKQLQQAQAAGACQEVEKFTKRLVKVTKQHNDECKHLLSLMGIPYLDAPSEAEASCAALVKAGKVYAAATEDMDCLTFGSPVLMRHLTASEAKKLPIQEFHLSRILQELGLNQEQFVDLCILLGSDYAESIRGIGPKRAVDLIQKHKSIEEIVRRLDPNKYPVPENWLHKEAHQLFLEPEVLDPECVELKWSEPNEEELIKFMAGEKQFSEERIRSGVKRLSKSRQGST

B1: DF5,1 (F1/T1) (structured_DNA)
DNA 1: TTTTTACAAGGACTGCTCGACAC
DNA 2: GTGTCGAGCAGTCCTTGTGACGACGAAGTCGTCC
For the molecule B1, the binding result was “binds”.

These data come from article PMC6009646, “Regional conformational flexibility couples substrate specificity and scissile phosphate diester selectivity in human flap endonuclease 1”.
